In patent US7563583B2, “Heregulin variants” (Genentech, Inc., priority 1997, dated 2009):
Positions count from the first letter of the chain named.

B1: V191: HRG-β1 variant with V191 mutated to alanine (protein, UniProt Q02297 1-640, looked up, variant V191A)
chain: MSERKEGRGKGKGKKKERGSGKKPESAAGSQSPALPPRLKEMKSQESAAGSKLVLRCETSSEYSSLRFKWFKNGNELNRKNKPQNIKIQKKPGKSELRINKASLADSGEYMCKVISKLGNDSASANITIVESNEIITGMPASTEGAYVSSESPIRISVSTEGANTSSSTSTSTTGTSHLVKCAEKEKTFCANGGECFMVKDLSNPSRYLCKCQPGFTGARCTENVPMKVQNQEKAEELYQKRVLTITGICIALLVVGIMCVVAYCKTKKQRKKLHDRLRQSLRSERNNMMNIANGPHHPNPPPENVQLVNQYVSKNVISSEHIVEREAETSFSTSHYTSTAHHSTTVTQTPSHSWSNGHTESILSESHSVIVMSSVENSRHSSPTGGPRGRLNGTGGPRECNSFLRHARETPDSYRDSPHSERYVSAMTTPARMSPVDFHTPSSPKSPPSEMSPPVSSMTVSMPSMAVSPFMEEERPLLLVTPPRLREKKFDHHPQQFSSFHHNPAHDSNSLPASPLRIVEDEEYETTQEYEPAQEPVKKLANSRRAKRTKPNGHIANRLEVDSNTSSQSSNSESETEDERVGEDTPFLGIQNPLAASLEATPAFRLADSRTNPAGRFSTQEEIQARLSSVIANQDPIAV
B2: D201: HRG-β1 variant with D201 mutated to alanine (protein, UniProt Q02297 1-640, looked up, variant D201A)
chain: B1 chain with A191V, D201A
B3: N204: HRG-β1 variant with N204 mutated to alanine (protein, UniProt Q02297 1-640, looked up, variant N204A)
chain: B1 chain with A191V, N204A
B4: V199: HRG-β1 variant with V199 mutated to alanine (protein)
chain: SHLVKCAEKEKTFCVNGGECFMAKDLSNPSRYLCKCPNEFTGDRCQNYVMASFYKHLGIEFMEAEELY
modifications: left off: large carriers; small tags and cut ends
notes: HRG-β1 variant with V199 mutated to alanine
B5: K200: HRG-β1 variant with K200 mutated to alanine (protein)
chain: B4 chain with A23V, K24A
modifications: left off: large carriers; small tags and cut ends
notes: HRG-β1 variant with K200 mutated to alanine
B6: S177: HRG-β1 variant with S177 mutated to alanine (protein)
chain: B4 chain with S1A, A23V
modifications: left off: large carriers
notes: HRG-β1 variant with S177 mutated to alanine

system: ErbB-3 or ErbB-4 receptors; assay: Alanine scan of the HRG-β1 EGF-like domain by phage ELISA (FIG. 2); assay type: binding; conditions: ratio of variant EC50 to wild-type EC50
Experimental: The X axis lists each amino acid that was changed to alanine and its position. […] The EC50 was calculated as the concentration of soluble receptor fusion required to displace 50% of the total amount of phage bound to immobilized receptor fusion. ErbB-3 binding results are shown with black bars, and ErbB-4 binding results are shown with white bars.
Alanine-substituted variants were generated by site-directed mutagenesis according to Kunkel et al., Methods Enzymol. 154:367-82 (1987) (hereinafter “Kunkel mutagenesis”), using uracil-containing single-stranded DNA template prepared from pHRG2-g3. pHRG2-g3, which is described in Example 1, expressed HRG-β1 177-244 fused to pIII 247. A series of oligonucleotides was used to generate a series of constructs that expressed a series of variants in which consecutive residues were mutated to alanine. Phage stocks were prepared from these constructs as described in Example 1, except that PEG(8000) was used to precipitate the phage. The affinities of the alanine-substituted variants for ErbB-3-Ig and ErbB-4-Ig was determined by phage ELISA as described in Example 1.

Row | Molecule | effect of substitution with alanine on affinity for the ErbB-3 or ErbB-4 receptors
1 | B1 | two and five
2 | B2 | two
3 | B3 | two
4 | B4 | two
5 | B5 | two
6 | B6 | two and five
